Like-named read-outs stand apart in the source and are kept apart here. Bounds are passed on as bounds.

Data on 53 molecules can be found in patent US20090304746A1.

Assay [1] deals with HLA-A*0201 (human).
Assay [2] deals with HLA-A*0201 (human), P30376. Kind of assay: competition binding assay, purified HLA, 125I probe.
Assay [3] deals with HLA-A*0201 (human). Kind of assay: competition with 125I-labelled standard peptide for purified HLA, gel filtration.
Another assay concerns the target HLA-B*0702 (human). Described as above.
The target in assay [4] is T1, HLA-DR1 (DRB1*0101) (human).
T1 chain 1: not shown
T1 chain 2: not shown
Kind of assay: competition vs 125I probe peptide, purified HLA-DR, gel filtration.

Assay [5] has as its target T2, HLA-DR4w4 (DRB1*0401) (human).
T2 chain 1: not shown
T2 chain 2: not shown
The description is as above.

Assay [6] concerns the target T3, HLA-DR7 (DRB1*0701) (human).
T3 chain 1: not shown
T3 chain 2: not shown
Kind of assay: purified HLA-DR, inhibition of 125I standard peptide, gel filtration.

Where [7] appears, read: remark: other sources report otherwise.

Take PVYCFTPSPV (modifications not checked) [… (HCV polyprotein position 508)]: the binding affinity ratio (IC50 of standard peptide / IC50 of test peptide) in the assay with HLA-A*0201 (human) [1] is 0.0004.
For the molecule DLMGYIPLV (modifications not checked) [HCV peptide 1013.1002 (CORE 132)], the 50% inhibitory concentration (IC50) in assay [2] (setting [7]) was under 500 nM.
Take IMAKNEVFCV (modifications not checked) [HCV peptide … (HCV polyprotein position 2591)]: the binding affinity ratio (IC50 of standard peptide / IC50 of test peptide) in the assay with HLA-A*0201 (human) [3] (setting [7]) worked out at 0.0088.
For QLPCEPEPDV (modifications not checked) [HCV peptide … (polyprotein position 2164)], in the assay with HLA-A*0201 (human) [3], the binding affinity ratio (IC50 of standard peptide / IC50 of test peptide) was 0.0002.
Regarding TPCSGSWL (modifications not checked) [HCV peptide TPCSGSWL (polyprotein position 1975)], the binding affinity ratio (relative to standard peptide) with HLA-B*0702 (human) was determined as 0.0028.
For RVESENKVV (modifications not checked) [HCV peptide … (polyprotein position 2252)], in the assay with HLA-A*0201 (human) [3], the binding affinity ratio (IC50 of standard peptide / IC50 of test peptide) is 0.0001.
Turning to DLCGSVFLV (modifications not checked) [… (HCV polyprotein position 279)], in the assay with HLA-A*0201 (human) [1] (setting [7]), the binding affinity ratio (IC50 of standard peptide / IC50 of test peptide) came to 0.0007.
Consider IVFPDLGVRV (modifications not checked) [HCV peptide … (HCV polyprotein position 2613)], for which the binding affinity ratio (IC50 of standard peptide / IC50 of test peptide) with HLA-A*0201 (human) [3] was 0.0016.
With RQEMGGNITRVESEN (modifications not checked) [HCV peptide … (HCV NS5 2243)], the binding affinity ratio (IC50 standard peptide / IC50 test peptide) in assay [4] was 0.0001; in assay [5], 0.0003.
In the case of RALAHGVRV (modifications not checked) [HCV peptide … (polyprotein position 149)], in the assay with HLA-A*0201 (human) [3], the binding affinity ratio (IC50 of standard peptide / IC50 of test peptide) was found to be 0.0001.
Molecule GTVLDQAETAGARLV (modifications not checked) yielded a relative binding (IC50 of standard peptide / IC50 of test peptide) in assay [6] of 0.0005.
For QIVGGVYLL (modifications not checked) [HCV peptide … (polyprotein position 29)], the binding affinity ratio (IC50 of standard peptide / IC50 of test peptide) with HLA-A*0201 (human) [3] was 0.0015.
Turning to NLPGCSFSI (modifications not checked) [… (HCV polyprotein position 168)], the binding affinity ratio (IC50 of standard peptide / IC50 of test peptide) in the assay with HLA-A*0201 (human) [1] (setting [7]) came out at 0.0041.
In the case of TPVNSWLGNII (modifications not checked) [HCV peptide … (polyprotein position 2856)], the binding affinity ratio (relative to standard peptide) in the assay with HLA-B*0702 (human) stood at 0.0001.
In the case of AILSPGALV (modifications not checked), the binding affinity ratio (IC50 of standard peptide / IC50 of test peptide) with HLA-A*0201 (human) [1] (setting [7]) worked out at 0.0014.
With SLTGRDKNQV (modifications not checked) [HCV peptide … (polyprotein position 1051)], the binding affinity ratio (IC50 of standard peptide / IC50 of test peptide) with HLA-A*0201 (human) [3] was found to be 0.0002.
In the case of VVLLFLLLADARVCS (modifications not checked) [HCV peptide … (HCV NS1/E2 724)], the binding affinity ratio (IC50 standard peptide / IC50 test peptide) in assay [4] was found to be 0.024; in assay [5] it was 0.012.
As to YLVAYQATV (modifications not checked) [HCV peptide 1013.02 (NS4 1590)], in assay [2], the 50% inhibitory concentration (IC50) is under 50 nM.
The same measure, in the same setting: under ILSPGALVV (modifications not checked) [HCV peptide 24.0065 (NS4 1891)] stands under 500 nM.
As for SMLTDPSHI (modifications not checked) [HCV peptide … (polyprotein position 2178)], the binding affinity ratio (IC50 of standard peptide / IC50 of test peptide) in the assay with HLA-A*0201 (human) [3] amounted to 0.0053.
Take NLGKVIDTL (modifications not checked) [… (HCV polyprotein position 118)]: the binding affinity ratio (IC50 of standard peptide / IC50 of test peptide) with HLA-A*0201 (human) [1] (setting [7]) was 0.0006.
On to ASQLSAPSLKATCTT (modifications not checked), for which the relative binding (IC50 of standard peptide / IC50 of test peptide) in assay [6] amounted to 0.0006.
Take WMNRLIAFA (modifications not checked) [HCV peptide 24.0073 (NS4 1920)]: the IC50 in assay [2] (setting [7]) is under 500 nM.
For ARLIVFPDLGVRVCE (modifications not checked) [HCV peptide … (HCV NS5 2610)], the binding affinity ratio (IC50 standard peptide / IC50 test peptide) in assay [4] came out at 0.0053; in assay [5] it was 0.0017.
For the molecule YPYRLWHY (modifications not checked) [HCV peptide YPYRLWHY (polyprotein position 616)], the binding affinity ratio (relative to standard peptide) with HLA-B*0702 (human) was determined as 0.0001.
In assay [6], LHGLSAFSLHSYSPG (modifications not checked) had a relative binding (IC50 of standard peptide / IC50 of test peptide) of 0.007.
Take YVGDLCGSV (modifications not checked) [HCV peptide … (A2 supermotif, position 276)]: the binding affinity ratio (IC50 of standard peptide / IC50 of test peptide) with HLA-A*0201 (human) [1] came to 0.0018.
In assay [6], IDTLTCGFADLMGYI (modifications not checked) registered a relative binding (IC50 of standard peptide / IC50 of test peptide) of 0.0003.
In the case of TPGLPVCQDHL (modifications not checked) [HCV peptide … (polyprotein position 1550)], the binding affinity ratio (relative to standard peptide) with HLA-B*0702 (human) amounted to 0.0001.
Take ARLIVFPDLGVRVCE (modifications not checked): the relative binding (IC50 of standard peptide / IC50 of test peptide) in assay [6] worked out at 0.0004.
Take WPLLLLLL (modifications not checked) [HCV peptide WPLLLLLL (polyprotein position 799)]: in the assay with HLA-B*0702 (human), the binding affinity ratio (relative to standard peptide) was found to be 0.0021.
For KVLVLNPSV (modifications not checked) [HCV peptide … (HCV polyprotein position 1255)], the binding affinity ratio (IC50 of standard peptide / IC50 of test peptide) in the assay with HLA-A*0201 (human) [3] was found to be 0.0048.
Consider TLTCGFADL (modifications not checked) [HCV peptide … (HCV polyprotein position 125)], for which the binding affinity ratio (IC50 of standard peptide / IC50 of test peptide) with HLA-A*0201 (human) [1] was found to be 0.0003.
As for ASQLSAPSLKATCTT (modifications not checked) [HCV peptide … (HCV NS5 2208)], the binding affinity ratio (IC50 standard peptide / IC50 test peptide) worked out at 0.015 in assay [4] and 0.0056 in assay [5].
With LLFNILGGWV (modifications not checked) [HCV peptide 1073.05 (NS4 1812)], the IC50 in assay [2] was under 50 nM.
In the case of CMSADLEVV (modifications not checked) [… (HCV polyprotein position 1653)], the binding affinity ratio (IC50 of standard peptide / IC50 of test peptide) with HLA-A*0201 (human) [1] (setting [7]) is 0.0067.
As for CVTQTVDFSL (modifications not checked) [… (HCV polyprotein position 1462)], the binding affinity ratio (IC50 of standard peptide / IC50 of test peptide) with HLA-A*0201 (human) [1] is 0.0006.
On to GTVLDQAETAGARLV (modifications not checked) [HCV peptide … (HCV NS3 1335)], for which the binding affinity ratio (IC50 standard peptide / IC50 test peptide) was found to be 0.0001 in assay [4] and 0.017 in assay [5].
Regarding FPDLGVRVCEKMALY (modifications not checked) [HCV peptide … (HCV NS5 2615)], the figures for the binding affinity ratio (IC50 standard peptide / IC50 test peptide) in assay [4] and in assay [5] were 0.0001 and 0.0003, respectively.
Turning to LAALAAYCL (modifications not checked) [HCV peptide … (HCV polyprotein position 1672)], the binding affinity ratio (IC50 of standard peptide / IC50 of test peptide) with HLA-A*0201 (human) [3] worked out at 0.0011.
Turning to GARLVVLATATPPGS (modifications not checked) [HCV peptide … (HCV NS3 1345)], the binding affinity ratio (IC50 standard peptide / IC50 test peptide) turned out to be 0.03 in assay [4] (setting [7]) and 0.8 in assay [5] (setting [7]).
For the molecule PQTFQVAHLHAPTGS (modifications not checked) [HCV peptide … (HCV NS3 1225)], the binding affinity ratio (IC50 standard peptide / IC50 test peptide) in assay [4] worked out at 0.24; in assay [5] it was 0.0053.
FPDLGVRVCEKMALY (modifications not checked) yielded a relative binding (IC50 of standard peptide / IC50 of test peptide) in assay [6] of 0.0002.
The same measure, in the same setting: under PQTFQVAHLHAPTGS (modifications not checked) stands 0.0003.
Consider VPESDAAA (modifications not checked) [HCV peptide VPESDAAA (polyprotein position 1940)], for which, in the assay with HLA-B*0702 (human), the binding affinity ratio (relative to standard peptide) is 0.0022.
For the molecule LHGLSAFSLHSYSPG (modifications not checked) [HCV peptide … (HCV NS5 2919)], the binding affinity ratio (IC50 standard peptide / IC50 test peptide) in assay [4] came out at 1.6; in assay [5] it was 0.0095.
The corresponding values for IDTLTCGFADLMGYI (modifications not checked) [HCV peptide … (HCV Core 123)] are 0.0017 and 0.0024.
As to TTIMAKNEVFCVQPE (modifications not checked) [HCV peptide … (HCV NS5 2589)], the results for the binding affinity ratio (IC50 standard peptide / IC50 test peptide) in assay [4] (setting [7]) and in assay [5] (setting [7]) were 0.0014 and 0.0036, respectively.
SLHSYSPGEI (modifications not checked) [HCV peptide … (polyprotein position 2926)]: the binding affinity ratio (IC50 of standard peptide / IC50 of test peptide) in the assay with HLA-A*0201 (human) [3] is 0.0008.
For the molecule ALSTGLIHL (modifications not checked) [HCV peptide 1013.12 (NS1/E2 686)], the 50% inhibitory concentration (IC50) in assay [2] was under 500 nM.
Regarding VVLLFLLLADARVCS (modifications not checked), the relative binding (IC50 of standard peptide / IC50 of test peptide) in assay [6] was determined as 0.0033.
As to AILSPGALVV (modifications not checked), the binding affinity ratio (IC50 of standard peptide / IC50 of test peptide) in the assay with HLA-A*0201 (human) [1] worked out at 0.0035.
Turning to SPTHYVPESDA (modifications not checked) [HCV peptide … (polyprotein position 1935)], the binding affinity ratio (relative to standard peptide) in the assay with HLA-B*0702 (human) was determined as 0.0001.
